In paper doi:10.1101/2020.04.07.029496 (bioRxiv, 2020):
Blank lines part the entries; values can stand above or below the molecule they belong to.

Legend:
[1] = biological target: E. gossypii Tip20 (residues 1-672) (E. gossypii); test: ITC
[2] = biological target: T1, S. cerevisiae Tip20_(I481D,L585D) (S. cerevisiae, UniProt P33891 1-701, I481D | L585D); test: ITC
T1 sequence: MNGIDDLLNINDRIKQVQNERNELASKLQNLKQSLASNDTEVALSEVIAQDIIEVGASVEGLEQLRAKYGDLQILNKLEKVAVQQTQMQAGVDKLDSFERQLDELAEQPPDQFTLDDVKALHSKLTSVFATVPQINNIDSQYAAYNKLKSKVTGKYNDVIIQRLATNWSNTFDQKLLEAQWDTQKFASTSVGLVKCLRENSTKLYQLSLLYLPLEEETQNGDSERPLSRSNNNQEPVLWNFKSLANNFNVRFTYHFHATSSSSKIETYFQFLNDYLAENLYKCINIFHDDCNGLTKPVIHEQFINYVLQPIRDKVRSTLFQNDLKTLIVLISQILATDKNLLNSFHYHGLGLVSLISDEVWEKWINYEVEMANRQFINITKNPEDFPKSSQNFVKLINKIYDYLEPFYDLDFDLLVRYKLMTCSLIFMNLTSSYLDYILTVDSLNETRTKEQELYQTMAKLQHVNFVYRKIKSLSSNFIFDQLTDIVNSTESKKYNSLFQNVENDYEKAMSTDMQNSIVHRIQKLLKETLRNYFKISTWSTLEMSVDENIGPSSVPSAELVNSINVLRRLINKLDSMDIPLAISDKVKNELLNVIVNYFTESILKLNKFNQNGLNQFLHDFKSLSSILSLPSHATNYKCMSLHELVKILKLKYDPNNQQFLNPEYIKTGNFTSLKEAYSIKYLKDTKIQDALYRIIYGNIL

- Kd [1]: 0.1 µM
Molecule: E. gossypii MBP-Sec20NTD (domain or fragment)

- fold increase in KD against wild-type Tip20 [2]: 15 fold
B1: S. cerevisiae Sec20_(1-174) (domain or fragment, UniProt P28791 1-174, looked up)
chain: MVVTFLQDLEVLQDALLNNLQKLSAISRRKESGESKHDNKDSFAAIANEHNDEEEEIEFEDLVNIIESKVSDFESVLKCSIVEMTYKYPELKLQWEKSPRYDQCDKLHIVKLDKQMNEDIYAQLVEELDFVLQFVDWFYCYRLKVKEILRQHHKRDLAWNDEKRDRAIKFHAVD
